# Experimental data as given in US20210388087A1 (Chugai, published 2021).
# Numbering of substitutions follows the chain as printed.
# B1: H183/L072 VL L33F (antibody, name in Kabat numbering, V domains shown)
# VH: QVQLVESGGGLVQPGRSLRLSCAASGFTFSNAWMHWVRQAPGKGLEWVAQIKDKGNAYAAYYAPSVKGRFTISRDDSKNSIYLQMNSLKTEDTAVYYCHYVHYASASTVLPAFGVDAWGQGTTVTVSS
# VL: DIVMTQSPLSLPVTPGEPASISCQASQELVHMNRNTYFHWYQQKPGQAPRLLIYKVSNRFPGVPDRFSGSGSGTDFTLKISRVEAEDVGVYYCAQGTSVPFTFGQGTKLEIK
# notes: Dual-Ig
# B2: H183/L072 VL N28Q (antibody, name in Kabat numbering, V domains shown)
# VH: B1 VH
# VL: B1 VL with N33Q, F38L
# notes: Dual-Ig
# B3: H183/L072 VL N28H (antibody, name in Kabat numbering, V domains shown)
# VH: B1 VH
# VL: B1 VL with N33H, F38L
# notes: Dual-Ig
# B4: H183/L072 VL M27eL (antibody, name in Kabat numbering, V domains shown)
# VH: B1 VH
# VL: B1 VL with M32L, F38L
# notes: Dual-Ig
# B5: H183/L072 VL M27eF (antibody, name in Kabat numbering, V domains shown)
# VH: B1 VH
# VL: B1 VL with M32F, F38L
# notes: Dual-Ig
# B6: H183/L072 VL N28K (antibody, name in Kabat numbering, V domains shown)
# VH: B1 VH
# VL: B1 VL with N33K, F38L
# notes: Dual-Ig
# B7: H183/L072 VL L33Y (antibody, name in Kabat numbering, V domains shown)
# VH: B1 VH
# VL: B1 VL with F38Y
# notes: Dual-Ig
# B8: H183/L072 VL M27eE (antibody, name in Kabat numbering, V domains shown)
# VH: B1 VH
# VL: B1 VL with M32E, F38L
# notes: Dual-Ig
# B9: H183/L072 VL M27eR (antibody, name in Kabat numbering, V domains shown)
# VH: B1 VH
# VL: B1 VL with M32R, F38L
# notes: Dual-Ig
# B10: H183/L072 VL L33H (antibody, name in Kabat numbering, V domains shown)
# VH: B1 VH
# VL: B1 VL with F38H
# notes: Dual-Ig
# B11: H183/L072 VL M27eG (antibody, name in Kabat numbering, V domains shown)
# VH: B1 VH
# VL: B1 VL with M32G, F38L
# notes: Dual-Ig
# B12: H183/L072 VL N28G (antibody, name in Kabat numbering, V domains shown)
# VH: B1 VH
# VL: B1 VL with N33G, F38L
# notes: Dual-Ig
# B13: H183/L072 VL N28S (antibody, name in Kabat numbering, V domains shown)
# VH: B1 VH
# VL: B1 VL with N33S, F38L
# notes: Dual-Ig
# B14: H183/L072 VL L33M (antibody, name in Kabat numbering, V domains shown)
# VH: B1 VH
# VL: B1 VL with F38M
# notes: Dual-Ig
# B15: H183/L072 VL N28V (antibody, name in Kabat numbering, V domains shown)
# VH: B1 VH
# VL: B1 VL with N33V, F38L
# notes: Dual-Ig
# B16: H183/L072 VL M27eH (antibody, name in Kabat numbering, V domains shown)
# VH: B1 VH
# VL: B1 VL with M32H, F38L
# notes: Dual-Ig
# B17: H183/L072 VL N28R (antibody, name in Kabat numbering, V domains shown)
# VH: B1 VH
# VL: B1 VL with N33R, F38L
# notes: Dual-Ig
# B18: H183/L072 VL L33I (antibody, name in Kabat numbering, V domains shown)
# VH: B1 VH
# VL: B1 VL with F38I
# notes: Dual-Ig
# B19: H183/L072 VL L33N (antibody, name in Kabat numbering, V domains shown)
# VH: B1 VH
# VL: B1 VL with F38N
# notes: Dual-Ig
# B20: H183/L072 VL L33Q (antibody, name in Kabat numbering, V domains shown)
# VH: B1 VH
# VL: B1 VL with F38Q
# notes: Dual-Ig
# B21: H183/L072 VL M27eQ (antibody, name in Kabat numbering, V domains shown)
# VH: B1 VH
# VL: B1 VL with M32Q, F38L
# notes: Dual-Ig
# B22: H183/L072 VL L33G (antibody, name in Kabat numbering, V domains shown)
# VH: B1 VH
# VL: B1 VL with F38G
# notes: Dual-Ig
# B23: H183/L072 VL M27eI (antibody, name in Kabat numbering, V domains shown)
# VH: B1 VH
# VL: B1 VL with M32I, F38L
# notes: Dual-Ig
# B24: H183/L072 VL N28L (antibody, name in Kabat numbering, V domains shown)
# VH: B1 VH
# VL: B1 VL with N33L, F38L
# notes: Dual-Ig
# B25: H183/L072 VL N28F (antibody, name in Kabat numbering, V domains shown)
# VH: B1 VH
# VL: B1 VL with N33F, F38L
# notes: Dual-Ig
# B26: H183/L072 VL M27eP (antibody, name in Kabat numbering, V domains shown)
# VH: B1 VH
# VL: B1 VL with M32P, F38L
# notes: Dual-Ig
# B27: H183/L072 VL N28I (antibody, name in Kabat numbering, V domains shown)
# VH: B1 VH
# VL: B1 VL with N33I, F38L
# notes: Dual-Ig
# B28: H183/L072 VL N28E (antibody, name in Kabat numbering, V domains shown)
# VH: B1 VH
# VL: B1 VL with N33E, F38L
# notes: Dual-Ig
# B29: H183/L072 VL N28P (antibody, name in Kabat numbering, V domains shown)
# VH: B1 VH
# VL: B1 VL with N33P, F38L
# notes: Dual-Ig
# B30: H183/L072 VL M27eA (antibody, name in Kabat numbering, V domains shown)
# VH: B1 VH
# VL: B1 VL with M32A, F38L
# notes: Dual-Ig
# B31: H183/L072 VL N28A (antibody, name in Kabat numbering, V domains shown)
# VH: B1 VH
# VL: B1 VL with N33A, F38L
# notes: Dual-Ig
# B32: H183/L072 VL L33V (antibody, name in Kabat numbering, V domains shown)
# VH: B1 VH
# VL: B1 VL with F38V
# notes: Dual-Ig
# B33: H183/L072 VL N28M (antibody, name in Kabat numbering, V domains shown)
# VH: B1 VH
# VL: B1 VL with N33M, F38L
# notes: Dual-Ig
# B34: H183/L072 VL L33T (antibody, name in Kabat numbering, V domains shown)
# VH: B1 VH
# VL: B1 VL with F38T
# notes: Dual-Ig
# B35: H183/L072 VL M27eW (antibody, name in Kabat numbering, V domains shown)
# VH: B1 VH
# VL: B1 VL with M32W, F38L
# notes: Dual-Ig
# B36: H183/L072 VL M27eN (antibody, name in Kabat numbering, V domains shown)
# VH: B1 VH
# VL: B1 VL with M32N, F38L
# notes: Dual-Ig
# B37: H183/L072 VL M27eS (antibody, name in Kabat numbering, V domains shown)
# VH: B1 VH
# VL: B1 VL with M32S, F38L
# notes: Dual-Ig
# B38: H183/L072 VL M27eK (antibody, name in Kabat numbering, V domains shown)
# VH: B1 VH
# VL: B1 VL with M32K, F38L
# notes: Dual-Ig
# B39: H183/L072 VL M27eT (antibody, name in Kabat numbering, V domains shown)
# VH: B1 VH
# VL: B1 VL with M32T, F38L
# notes: Dual-Ig
# B40: H183/L072 VL L33P (antibody, name in Kabat numbering, V domains shown)
# VH: B1 VH
# VL: B1 VL with F38P
# notes: Dual-Ig
# B41: H183/L072 VL N28W (antibody, name in Kabat numbering, V domains shown)
# VH: B1 VH
# VL: B1 VL with N33W, F38L
# notes: Dual-Ig
# B42: H183/L072 VL L33W (antibody, name in Kabat numbering, V domains shown)
# VH: B1 VH
# VL: B1 VL with F38W
# notes: Dual-Ig
# B43: H183/L072 VL M27eD (antibody, name in Kabat numbering, V domains shown)
# VH: B1 VH
# VL: B1 VL with M32D, F38L
# notes: Dual-Ig
# B44: H183/L072 VL N28T (antibody, name in Kabat numbering, V domains shown)
# VH: B1 VH
# VL: B1 VL with N33T, F38L
# notes: Dual-Ig
# B45: H183/L072 VL M27eV (antibody, name in Kabat numbering, V domains shown)
# VH: B1 VH
# VL: B1 VL with M32V, F38L
# notes: Dual-Ig
# B46: H183/L072 VL M27eY (antibody, name in Kabat numbering, V domains shown)
# VH: B1 VH
# VL: B1 VL with M32Y, F38L
# notes: Dual-Ig
# Target: T1, Human CD137 ECD (human)
# T1 construct: entry includes C-terminal His-tag and biotin acceptor peptide; also called human CD137 extracellular domain; 4-1BB
# T1 sequence (chain, as listed by the source limits assumed): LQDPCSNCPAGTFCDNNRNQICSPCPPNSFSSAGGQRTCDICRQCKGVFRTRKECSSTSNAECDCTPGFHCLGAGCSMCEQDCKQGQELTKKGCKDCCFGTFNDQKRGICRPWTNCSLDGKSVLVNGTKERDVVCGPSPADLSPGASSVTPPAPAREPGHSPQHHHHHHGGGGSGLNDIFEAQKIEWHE
# Assay: Biacore SPR, vs parent H183/L072
row,Binder,fold change of affinity [fold]
1,B1,0.3
2,B2,0.4
3,B3,0.4
4,B4,0.8
5,B5,0.7
6,B6,0.3
7,B7,0.1
8,B8,0.9
9,B9,1
10,B10,0.9
11,B11,0.7
12,B12,0.5
13,B13,0.5
14,B14,0.9
15,B15,0.3
16,B16,0.8
17,B17,0.4
18,B18,0.1
19,B19,0.1
20,B20,1.4
21,B21,1
22,B22,0.1
23,B23,0.9

row,Binder,fold change of affinity [fold]
1,B24,0.3
2,B25,0.4
3,B26,1
4,B27,0.3
5,B28,0.2
6,B29,0.4
7,B30,1
8,B31,0.4
9,B32,0.6
10,B33,0.4
11,B34,0.2
12,B35,0.7
13,B36,0.8
14,B37,0.9
15,B38,1.1
16,B39,0.9
17,B40,0.2
18,B41,0.3
19,B42,0.1
20,B43,0.7
21,B44,0.5
22,B45,0.9
23,B46,0.7
